The target of data set [1] is T1, TMEV 2A (Theiler's murine encephalitis virus …, UniProt P08545 923-1055).
T1 sequence: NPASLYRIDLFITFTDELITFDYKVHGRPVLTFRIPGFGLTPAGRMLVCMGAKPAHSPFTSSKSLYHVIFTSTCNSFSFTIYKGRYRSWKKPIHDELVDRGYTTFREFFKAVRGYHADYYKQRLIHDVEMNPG
Nature of the data set: EMSA; EMSA: 10 mM Tris-HCl pH 7.4, ~140 mM NaCl, 2 mM Mg acetate, 1 mM DTT, 5% glycerol, 50 nM RNA, 37 C; MST: 20 mM Tris-HCl pH 7.4, 400 mM NaCl, 1 mM MgCl2, 1 mM DTT, 0.05% Tween-20, 0.1 mg/ml tRNA, 22 C; smFRET: 10 mM Tris-HCl pH 7.4, 150 mM NaCl, 1 mM MgCl2, 1 mM DTT, 0.1 mg/ml BSA, ambient. The note with it: protein: recombinant, tags: His6-MBP, TEV-cleaved/removed, label: 5' Cy5 or AzDye647. In general terms: In EMSA bound probe runs differently from free probe, usually more slowly.

In data set [2] the target is T1, TMEV 2A. Nature of the data set: EMSA; range given jointly for +1 and -1 bp; EMSA: 10 mM Tris-HCl pH 7.4, ~140 mM NaCl, 2 mM Mg acetate, 1 mM DTT, 5% glycerol, 50 nM RNA, 37 C; MST: 20 mM Tris-HCl pH 7.4, 400 mM NaCl, 1 mM MgCl2, 1 mM DTT, 0.05% Tween-20, 0.1 mg/ml tRNA, 22 C; smFRET: 10 mM Tris-HCl pH 7.4, 150 mM NaCl, 1 mM MgCl2, 1 mM DTT, 0.1 mg/ml BSA, ambient. The note with it: protein: recombinant, tags: His6-MBP, TEV-cleaved/removed, label: 5' Cy5 or AzDye647.

Data set [3] addresses T1, TMEV 2A. As to the kind of experiment: X-ray crystallography; 1.9 A; pseudoknot; EMSA: 10 mM Tris-HCl pH 7.4, ~140 mM NaCl, 2 mM Mg acetate, 1 mM DTT, 5% glycerol, 50 nM RNA, 37 C; MST: 20 mM Tris-HCl pH 7.4, 400 mM NaCl, 1 mM MgCl2, 1 mM DTT, 0.05% Tween-20, 0.1 mg/ml tRNA, 22 C; smFRET: 10 mM Tris-HCl pH 7.4, 150 mM NaCl, 1 mM MgCl2, 1 mM DTT, 0.1 mg/ml BSA, ambient. The settings on record: protein: recombinant; tags: His6-MBP, TEV-cleaved/removed; stem-loop alone.

The target of data set [4] is T1, TMEV 2A. As to the kind of experiment: smFRET; 0.5 uM 2A; E 0.85 to 0.63; EMSA: 10 mM Tris-HCl pH 7.4, ~140 mM NaCl, 2 mM Mg acetate, 1 mM DTT, 5% glycerol, 50 nM RNA, 37 C; MST: 20 mM Tris-HCl pH 7.4, 400 mM NaCl, 1 mM MgCl2, 1 mM DTT, 0.05% Tween-20, 0.1 mg/ml tRNA, 22 C; smFRET: 10 mM Tris-HCl pH 7.4, 150 mM NaCl, 1 mM MgCl2, 1 mM DTT, 0.1 mg/ml BSA, ambient. The settings on record: protein: recombinant; tags: His6-MBP, TEV-cleaved/removed; label: 5' Cy5; 3' Cy3; stem-loop / pseudoknot.

Data set [5] concerns the target T1, TMEV 2A. As to the kind of experiment: smFRET; 0.5 uM 2A; E 0.58 to 0.83; EMSA: 10 mM Tris-HCl pH 7.4, ~140 mM NaCl, 2 mM Mg acetate, 1 mM DTT, 5% glycerol, 50 nM RNA, 37 C; MST: 20 mM Tris-HCl pH 7.4, 400 mM NaCl, 1 mM MgCl2, 1 mM DTT, 0.05% Tween-20, 0.1 mg/ml tRNA, 22 C; smFRET: 10 mM Tris-HCl pH 7.4, 150 mM NaCl, 1 mM MgCl2, 1 mM DTT, 0.1 mg/ml BSA, ambient. The note with it: protein: recombinant; tags: His6-MBP, TEV-cleaved/removed; label: 5' Cy5; U31 Cy3; stem-loop / pseudoknot.

The target in data set [6] is T1, TMEV 2A. As to the kind of experiment: SEC-SAXS; SASDWS5; EMSA: 10 mM Tris-HCl pH 7.4, ~140 mM NaCl, 2 mM Mg acetate, 1 mM DTT, 5% glycerol, 50 nM RNA, 37 C; MST: 20 mM Tris-HCl pH 7.4, 400 mM NaCl, 1 mM MgCl2, 1 mM DTT, 0.05% Tween-20, 0.1 mg/ml tRNA, 22 C; smFRET: 10 mM Tris-HCl pH 7.4, 150 mM NaCl, 1 mM MgCl2, 1 mM DTT, 0.1 mg/ml BSA, ambient. The note with it: protein: recombinant; tags: His6-MBP, TEV-cleaved/removed; 7 bp stem-loop with unpaired 5' tail alone; pseudoknot in complex.

Residue numbers refer to the chain shown, from its start. In names and notes the source's numbering stands.

We go through 14 molecules from paper doi:10.1101/2025.07.17.665365, “A protein-dependent riboswitch activates ribosomal frameshifting in cardioviruses”.

B1: -2 bp stem 2 (structured_RNA)
RNA: CAAGGUGCGGUGCACUAAAUCCCGCACCCC
On to B1, for which, in the data set with TMEV 2A [1] (5 bp S2), the binding result is given as “no binding”.

B2: +1 bp stem 2 (structured_RNA)
RNA: CAAGGUGGGGUGCUUACUAAAUCCCAAGCACCCC
Turning to B2, the dissociation constant (Kd) in the data set with TMEV 2A [2] (8 bp S2) is about 442 nM.

B3: TMEV minimal stimulatory element (oligo 1) (structured_RNA)
RNA: B2 RNA with G8C, U15A, A26U
As for B3, the binding result in the data set with TMEV 2A [3] is “binds”.

B4: TMEV end reporter RNA (structured_RNA)
RNA: B2 RNA with G8C, U15A, A26U
With B4, the binding result with TMEV 2A [4] is “binds”.

B5: TMEV internal reporter RNA (structured_RNA)
RNA: B2 RNA with G8C, U15A, A26U
modifications: U31 Cy3 (internal)
With B5, the binding result with TMEV 2A [5] is listed as “binds”.

B6: C36G (structured_RNA)
RNA: B2 RNA with G8C, U15A, C23G, A26U
Turning to B6, in the data set with TMEV 2A [1] (stem-loop), the binding result is listed as “no binding”.

B7: C37G (structured_RNA)
RNA: B2 RNA with G8C, U15A, C24G, A26U
B7: in the data set with TMEV 2A [1] (stem-loop), the binding result was “no binding”.

B8: Stem 2 swap (structured_RNA)
RNA: CAAGGUGCCCACGAUACUAAAUCCCAUCGUGGCC
For B8, in the data set with TMEV 2A [1] (stem-loop / pseudoknot), the dissociation constant (Kd) is about 313 nM.

B9: Stem 1 swap (structured_RNA)
RNA: CAACCUCCGGUGCUAACUAAAUGGGUAGCACCCC
Regarding B9, the binding result in the data set with TMEV 2A [1] (stem-loop / pseudoknot) was “no binding”.

B10: dU19 stem 1 (structured_RNA)
RNA: CAAGGGCGGUGCUAACUAAAUCCCUAGCACCCC
As for B10, the binding result with TMEV 2A [1] (stem-loop / pseudoknot) is listed as “no binding”.

B11: UA stem 1 (structured_RNA)
RNA: CAAUUUUCGGUGCUAACUAAAUAAAUAGCACCCC
For B11, the binding result with TMEV 2A [1] (stem-loop / pseudoknot) was “no binding”.

B12: TMEV stimulatory element, SAXS RNA (structured_RNA)
RNA: CCACAAGGUGCGGUGCUAACUAAAUCCCUAGCACCCC
As for B12, the binding result in the data set with TMEV 2A [6] was “binds”.

B13: -1 bp stem 2 (structured_RNA)
RNA: CAAGGUGCGGUGCUACUAAAUCCCAGCACCCC
B13: in the data set with TMEV 2A [2] (6 bp S2), the Kd was about 442 nM.

B14: AU stem 1 (structured_RNA)
RNA: CAAAAUACGGUGCUAACUAAAUUUUUAGCACCCC
For B14, the binding result with TMEV 2A [1] (stem-loop / pseudoknot) is listed as “no binding”.

One may read the Kd as the free concentration of one partner at which half of the binding sites on the other are occupied at equilibrium, for simple one-to-one binding.
